Common to all, as to type: biochemical
One experiment deals with T1, human trypsin (Homo sapiens, UniProt P07477).
T1 construct: purchased Calbiochem
Description: Human trypsin-inhibiting activity (synthetic substrate S-2444). Conditions: purified polypeptide, various concentration levels. As to the method:
The purified polypeptide of the present invention was dissolved in 100 μl of distilled water. Concentration of polypeptide in the thus prepared solution was determined based on its bovine trypsin-inhibiting activity measured in accordance with the above procedure (1) using UTI (Mochida Pharmaceutical Co., Ltd.; cf. H. Ohnishi et al., Nippon Yakurigaku Zasshi, vol.85, pp.1-6, 1985) as a standard. The polypeptide solution was then diluted to various concentration levels with 0.03% BSA/0.2M triethanolamine-HCl buffer (pH 7.8) for use in the activity measurement. Separately from this, human trypsin (Calbiochem) was dissolved in 1 mM HCl to a concentration of 1,000 SU/ml and the solution was further diluted with the 0.03% BSA/0.2M triethanolamine-HCl buffer (pH 7.8) to prepare a 1.25 SU/ml solution of human trypsin. Thereafter, human trypsin-inhibiting activity was measured in the same manner as described in the above procedure (1) using the aforementioned synthetic substrate S-2444. Separately from this, polypeptide AN68 (sequence described in Example 17(3)) was diluted to various concentration levels. Thereafter, human trypsin-inhibiting activity was measured in the same manner as described in the above procedure (1) and compared with the trypsin-inhibiting activity of the novel polypeptide of the present invention.

The target in experiment [1] is T2, Human neutrophil elastase (Homo sapiens, UniProt P08246).
T2 construct: purchased CALBIOCHEM
T2 sequence (P08246 30-267): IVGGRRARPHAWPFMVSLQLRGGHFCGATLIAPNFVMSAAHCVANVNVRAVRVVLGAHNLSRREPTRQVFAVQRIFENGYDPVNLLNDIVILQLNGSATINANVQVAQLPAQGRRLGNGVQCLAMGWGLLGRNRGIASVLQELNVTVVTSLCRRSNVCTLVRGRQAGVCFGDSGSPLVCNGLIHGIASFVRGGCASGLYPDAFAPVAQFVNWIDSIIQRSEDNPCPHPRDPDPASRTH
Description: Human elastase-inhibiting activity (substrate STANA). Conditions: for elastase-inhibiting activity, times higher than that of polypeptide Q19K/Y46D: relative to Q19K/Y46D; for elastase-inhibiting activity, times higher than that of polypeptide AN68: relative to control AN68. As to the method:
The purified polypeptide of the present invention was dissolved in 100 μl of distilled water. The concentration of this solution was determined based on its bovine trypsin-inhibiting activity using UTI as a standard. The solution was then diluted to various concentration levels with 0.1% BSA/27 mM CaCl2 /133 mM Tris-HCl buffer (pH 7.5) for use in the activity measurement. The aforementioned AN68 was also diluted in the same manner for use as a control. Human elastase-inhibiting activities in the test samples and the control were measured in accordance with the method of Ogawa et al. (Ogawa, M. et al., Res. Commun. Chem. Pathol. Pharmacol., vol.55, pp.271-274, 1987) using a synthetic compound STANA (Peptide Institute Inc.) as a substrate.
Human neutrophil elastase (CALBIOCHEM) was dissolved in 27 mM CaCl2 /133 mM Tris-HCl buffer (pH 7.5) to a concentration of 100 μg/ml and the solution was further diluted with 0.1% BSA/27 mM CaCl2 /133 mM Tris-HCl buffer (pH 7.5) to prepare a 4 μg/ml elastase solution. 100 mM STANA solution was prepared by dissolving it in N-methyl-2-pyrrolidone and the solution was further diluted with 0.1% BSA/27 mM CaCl2 /133 mM Tris-HCl buffer (pH 7.5) to prepare a 20 mM STANA solution.
Next, 50 μl of the test sample or positive control was mixed with 50 μl of the elastase solution and 50 μl of 0.1% BSA/27 mM CACl2 /133 mM Tris-HCl buffer (pH 7.5). After incubation at 37° C. for 10 minutes, 50 μl of the STANA solution was added to the mixture to start the reaction. The reaction was carried out at 37° C. for 20 minutes and then stopped by adding 50 μl of 50% acetic acid solution to the reaction mixture. Thereafter, absorbance at a wavelength of 405 nm was measured using a spectrophotometer. In this instance, in order to eliminate absorbance of various solutions in the reaction product, a blank solution was prepared by mixing 50 μl of the elastase solution with 50 μl of 50% acetic acid and then with 50 μl of each test sample or the control, 50 μl of 0.1% BSA/27 mM CaCl2 /133 mM Tris-HCl buffer (pH 7.5) and with 50 μl of the STANA solution.
The results are shown in FIG. 54 and FIG. 55 and FIG. 67 to FIG. 69. In these figures, polypeptide concentration in the reaction solution is expressed as its bovine trypsin-inhibiting activity. Also, remaining human elastase activity was expressed by percentage based on the absorbance of a control reaction mixture in which 50 μl of the 0.1% BSA/27 mM CaCl2 /133 mM Tris-HCl buffer (pH 7.5) was used instead of the test sample or the control.

Another experiment deals with T3, Bovine trypsin (Bos taurus, UniProt P00760).
T3 construct: purchased Sigma Chemical Co. Type XIII
T3 sequence (P00760 24-246): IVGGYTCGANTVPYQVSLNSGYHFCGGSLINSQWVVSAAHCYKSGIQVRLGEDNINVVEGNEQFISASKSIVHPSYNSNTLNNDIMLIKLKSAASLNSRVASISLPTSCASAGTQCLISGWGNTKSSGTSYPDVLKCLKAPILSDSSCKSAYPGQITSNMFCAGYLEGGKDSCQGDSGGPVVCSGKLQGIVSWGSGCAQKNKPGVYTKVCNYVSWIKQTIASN
Description: Bovine trypsin-inhibiting activity (synthetic substrate S-2444). Conditions: purified polypeptide, serially diluted. As to the method: The purified polypeptide of the present invention was dissolved in 100 μl of distilled water, and the solution was serially diluted with a 0.1% BSA/0.2M triethanolamine-HCl buffer (pH 7.8) for use in the activity measurement. Measurement of the trypsin-inhibiting activity in the thus prepared test sample was carried out in accordance with the Kassell's method (Kassell, B. et al., Methods in Enzymology, vol.19, pp.844-852, 1970) using a synthetic substrate S-2444 (Daiichi Pure Chemicals Co., Ltd.).
Bovine trypsin (Type XIII, Sigma Chemical Co.) was dissolved in 0.001M HCl to a final concentration of 13,600 BAEEU/ml and the solution was further diluted with 0.1% BSA/0.2M triethanolamine-HCl buffer (pH 7.8) to prepare 1.2 BAEEU/ml of trypsin solution. Separately from this, 2 mM solution of the synthetic substrate S-2444 was prepared by dissolving it in distilled water. Next, 100 μl of the test sample was mixed with 100 μl of the trypsin solution. After incubating statically at 37° C. for 10 minutes, 50 μl of the S-2444 solution was added to start the reaction. The reaction was carried out at 37° C. for 15 minutes and then stopped by adding 50 μl of 50% acetic acid solution to the reaction mixture. Thereafter, absorbance at a wavelength of 405 nm was measured using a spectrophotometer. In this instance, in order to eliminate absorbancy of various contents in the reaction mixture other than the reaction product, a blank solution was prepared by mixing 100 μl of the bovine trypsin solution with 50 μl of 50% acetic acid and then with 100 μl of each test sample and 50 μl of the S-2444 solution.

B1: R11Q/Q19K/Y46D: formula 1 sequence with Gln for position 7 Arg, Lys for position 15 Gln, Asp for position 42 Tyr; SEQ. I.D. NO. 37 (protein)
chain: AACNLPIVQGPCRAFIKLWAFDAVKGKCVLFPYGGCQGNGNKFDSEKECREYCGVPGDGDEELLRFSN
Regarding B1, the human trypsin inhibition entry with human trypsin is reported as “can inhibit human trypsin in a concentration-dependent manner”. For the same molecule, in experiment [1], the “elastase-inhibiting activity, times higher than that of polypeptide Q19K/Y46D” value was “about 3 times” and the “elastase-inhibiting activity, times higher than that of polypeptide AN68” value is “about 3 times”. In the experiment with Bovine trypsin, the bovine trypsin inhibition result is on record as “can inhibit bovine trypsin in a concentration-dependent manner”.

B2: R11D/Q19K/Y46D: formula 1 sequence with Asp for position 7 Arg, Lys for position 15 Gln, Asp for position 42 Tyr; SEQ. I.D. NO. 38 (protein)
chain: AACNLPIVDGPCRAFIKLWAFDAVKGKCVLFPYGGCQGNGNKFDSEKECREYCGVPGDGDEELLRFSN
As to B2, the human trypsin inhibition entry in the experiment with human trypsin is given as “can inhibit human trypsin in a concentration-dependent manner”. For the same molecule, in experiment [1], the “elastase-inhibiting activity, times higher than that of polypeptide Q19K/Y46D” value was “about 3 times” and the “elastase-inhibiting activity, times higher than that of polypeptide AN68” value is on record as “about 3 times”. Moreover, the bovine trypsin inhibition result with Bovine trypsin is “can inhibit bovine trypsin in a concentration-dependent manner”.

B3: R11A/Q19K/Y46D: formula 1 sequence with Ala for position 7 Arg, Lys for position 15 Gln, Asp for position 42 Tyr; SEQ. I.D. NO. 43 (protein)
chain: AACNLPIVAGPCRAFIKLWAFDAVKGKCVLFPYGGCQGNGNKFDSEKECREYCGVPGDGDEELLRFSN
Regarding B3, the human trypsin inhibition result with human trypsin was “can inhibit human trypsin in a concentration-dependent manner”. Also, in experiment [1], the “elastase-inhibiting activity, times higher than that of polypeptide Q19K/Y46D” value is reported as “about 4 times” and the “elastase-inhibiting activity, times higher than that of polypeptide AN68” value is “about 4 times”. For the same molecule, the bovine trypsin inhibition result in the experiment with Bovine trypsin is recorded as “can inhibit bovine trypsin in a concentration-dependent manner”.

B4: R11S/Q19K/Y46D: formula 1 sequence with Ser for position 7 Arg, Lys for position 15 Gln, Asp for position 42 Tyr; SEQ. I.D. NO. 42 (protein)
chain: AACNLPIVSGPCRAFIKLWAFDAVKGKCVLFPYGGCQGNGNKFDSEKECREYCGVPGDGDEELLRFSN
Turning to B4, in the experiment with human trypsin, the human trypsin inhibition entry is “can inhibit human trypsin in a concentration-dependent manner”. Besides, in experiment [1], the “elastase-inhibiting activity, times higher than that of polypeptide Q19K/Y46D” value is on record as “about 10 times” and the “elastase-inhibiting activity, times higher than that of polypeptide AN68” value was “about 10 times”. The bovine trypsin inhibition result in the experiment with Bovine trypsin is on record as “can inhibit bovine trypsin in a concentration-dependent manner”.

B5: R11L/Q19K/Y46D: formula 1 sequence with Leu for position 7 Arg, Lys for position 15 Gln, Asp for position 42 Tyr; SEQ. I.D. NO. 39 (protein)
chain: AACNLPIVLGPCRAFIKLWAFDAVKGKCVLFPYGGCQGNGNKFDSEKECREYCGVPGDGDEELLRFSN
As for B5, the human trypsin inhibition result with human trypsin is reported as “can inhibit human trypsin in a concentration-dependent manner”. In addition, in experiment [1], the “elastase-inhibiting activity, times higher than that of polypeptide Q19K/Y46D” value is “about 2 times” and the “elastase-inhibiting activity, times higher than that of polypeptide AN68” value is on record as “about 2 times”. The bovine trypsin inhibition result in the experiment with Bovine trypsin is recorded as “can inhibit bovine trypsin in a concentration-dependent manner”.

B6: R11E/Q19K/Y46E: formula 1 sequence with Glu for position 7 Arg, Lys for position 15 Gln, Glu for position 42 Tyr; SEQ. I.D. NO. 40 (protein)
chain: AACNLPIVEGPCRAFIKLWAFDAVKGKCVLFPYGGCQGNGNKFESEKECREYCGVPGDGDEELLRFSN
For the molecule B6, the human trypsin inhibition result with human trypsin was “can inhibit human trypsin in a concentration-dependent manner”. In experiment [1] (relative to Q19K/Y46E from E. coli JE5505(pM721)), the “elastase-inhibiting activity, times higher than that of polypeptide Q19K/Y46E” value came to 6 times. Besides, in experiment [1], the “elastase-inhibiting activity, times higher than that of polypeptide AN68” value is given as “about 5 times”. Moreover, the bovine trypsin inhibition result with Bovine trypsin is reported as “can inhibit bovine trypsin in a concentration-dependent manner”.

B7: R11N/Q19K/Y46D: formula 1 sequence with Asn for position 7 Arg, Lys for position 15 Gln, Asp for position 42 Tyr; SEQ. I.D. NO. 41 (protein)
chain: AACNLPIVNGPCRAFIKLWAFDAVKGKCVLFPYGGCQGNGNKFDSEKECREYCGVPGDGDEELLRFSN
As to B7, the human trypsin inhibition result with human trypsin is “can inhibit human trypsin in a concentration-dependent manner”. Besides, in experiment [1], the “elastase-inhibiting activity, times higher than that of polypeptide Q19K/Y46D” value is “about 5 times” and the “elastase-inhibiting activity, times higher than that of polypeptide AN68” value is “about 5 times”. Also, the bovine trypsin inhibition entry with Bovine trypsin is “can inhibit bovine trypsin in a concentration-dependent manner”.

These data come from patent US5679770A, “Polypeptide, DNA fragment encoding the same, drug composition containing the same and process for producing the same” (Mochida Pharmaceutical Co., Ltd., priority 1991, dated 1997).
